Laboratory results as given in patent US20250197505A1 (DREN BIO, published 2025).

Biological target: T1, human CD94 expressed on cells (human primary NK cells in PBMCs; HEK cells expressing human CD94) (human, UniProt Q13241 1-179)
T1 construct: whole, on cells; also called KLRD1; Natural killer cells antigen CD94
T1 sequence (looked up): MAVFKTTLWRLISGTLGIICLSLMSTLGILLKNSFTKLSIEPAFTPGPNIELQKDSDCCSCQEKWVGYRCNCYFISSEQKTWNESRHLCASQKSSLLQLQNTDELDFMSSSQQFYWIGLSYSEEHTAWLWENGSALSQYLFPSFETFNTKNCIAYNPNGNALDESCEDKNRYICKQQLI
Experiment: HLA-E tetramer blocking assay, flow cytometry on CD3-CD56+ NK cells in healthy donor PBMCs; antibody at one saturating concentration, blocked ligand PE-labelled HLA-E tetramer; percent blocking = 100-((percent HLA-E positive with antibody)/(percent HLA-E positive with isotype)*100)
Protocol: Healthy donor PBMCs were incubated with anti-CD94 antibodies. PE labeled HLA-E tetramer was then incubated with the cell and antibody mixture, and detected using flow cytometry. For HP-3B1, 131412, 12K45, DX22, 1M4 and 1E4, 2.5 μl of HLA-E tetramer reagent was used, while 5 μl was used for 18H3 and HP-3D9. Saturating concentrations of each antibody was used in this assay. The percent blocking was calculated as 100−((percent HLA-E positive for anti-CD94 antibody)/(percent HLA-E positive for isotype)*100).
Healthy donor PBMCs were seeded in 96-well plates at a density of 100,000 cells per well, incubated with human Fc block (Biolegend) and cell viability dye (Thermo Fisher) for 30 minutes on ice and protected from light. The cells were washed once with FACS buffer (PBS with 2% IgG low FBS). anti-CD94 antibodies at EC80 concentrations were incubated with cells for 30 minutes on ice and protected from light. After incubation with the anti-CD94 antibodies, the cells were washed and incubated with HLA-E tetramer PE (Creative Biolabs), anti-CD3 pacific blue-labelled, and anti-CD56 FITC-labelled antibodies (Biolegend) for 30 minutes on ice and protected from light. The cells then received a final wash in FACS buffer before quantification on the Cytoflex (Beckman Coulter). All data acquisition and fluorescence compensation were performed using CytoFlex (Beckman Coulter, Atlanta, GA). Data analysis was performed using FlowJo software. NK cells were identified through gating on lymphocytes on the forward and side scatter, followed by doublet and dead cell exclusion, and gated on the CD3−CD56+ population. HLA-E expression was then quantified on the CD3−CD56+NK cell population. Percent blocking was calculated as 100−((percent HLA-E positive for anti-CD94 antibody)/(percent HLA-E positive for isotype)*100).

B1: anti-CD94 antibody clone 18H3 (antibody, V domains shown)
VH: EVQLVQSGAEVKKPGESLKISCKGSGYRFTSYWIGWVRQMPGKGLEWMGIIYPGDSDTRYSPSFQGQVIISADKSITTAFLQWSSLKASDTAMYYCARPFDYGGSPGYFDYWGQGTLVTVSS
VL: DIQMTQSPSTLSASVGDRVTITCRASQSIRSWLAWYQQKPGKAPKLLIYKASSLESGVPSRFSGSGSGTEFTLTISSLQPDDFATYYCQQYNTFWTFGQGTKVEIK
notes: also called 18H3-AF647
  HLA-E Blocking: 0%
